± gives the uncertainty stated by the source.

The series is described as follows: amyloid nucleation score (Sup35N fusion, yeast selection) (log enrichment); library NNK2; higher = more nucleation; inactive = no reads after selection. An outline of the steps: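 Sup35N was fused to peptides of 20 random codons and expressed in psi-negative yeast, which were induced with 100 μM copper sulfate for 24 hours and then grown on medium lacking adenine and uracil for 7 days at 30°C. Plasmid inserts from input and output were sequenced on Illumina. The nucleation score is the DiMSum log enrichment of output over input reads, centred on the mode score of non-aggregating sequences. Sequences with under 100 input reads were left out, and random libraries had three technical output replicates.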
RFMVSRYFISGPIIVSC yielded an amyloid nucleation score of 0.284 ± 1.1.
RFPLGCKMSVTGPFHMTHHA returned an amyloid nucleation score of 1.29 ± 0.38.
The entry for RFSYFFHVLMRGRNYVQATG is “inactive”.
RFYRIDAKVAYQWAYQF: the amyloid nucleation score was 3.94 ± 0.12.
The entry for RGCGFRIDVGKRWRNRIKSV is “inactive”; for RGCMEVWVLYQSNALSM it is 4.18 ± 0.071.
The figure for RGDHDCW is 0.77 ± 0.32; for RGDSATLVGCNVVMGRRFSL it is 4.32 ± 0.099; for RGFNGSLR it is 0.552 ± 0.4.
The value for RGFRGRFVFGRT was -0.183 ± 0.49.
RGFWRVFGCRHIVATPFEVE showed an amyloid nucleation score of 8.675 ± 0.058.
Regarding RGGSTPYYNWSAGDGWKKDK, the amyloid nucleation score turned out to be 2.86 ± 0.065.
As for RGHSALFTNFCGTMCGVVDG, the amyloid nucleation score came out at 0.148 ± 1.
The value for RGINVGGWLSLGFTGAVHSL was 3.4 ± 0.12.
The value for RGKSKYSRLGWPGNLEHKGL was 0.388 ± 0.46; that for RGLLHFIFVITQYKGIYSNV was “inactive”; that for RGMVLS was -0.129 ± 1.1.
In turn, RGSSALDE yielded an amyloid nucleation score of 0.382 ± 0.35.
The value for RGTMVWTDCFMCLGLYKKVY was -0.896 ± 0.56; that for RGTNQSSVSMRGAL was 0.523 ± 0.36; that for RGTVVTGF was 1.3 ± 0.44.
The figure for RGWCLDRPQYNVFRAMSRSL is 0.066 ± 1.
Turning to RGYFPFYNR, the amyloid nucleation score was -0.907 ± 0.65.
With RHLHYRRYKIAAKGLIVFMN, the amyloid nucleation score was found to be 3.95 ± 0.067.
In the case of RHSCFICFNVLVICGLNLSL, the amyloid nucleation score turned out to be 5.927 ± 0.037.
Consider RHYLLFGWIVSPKVELFSPS, for which the amyloid nucleation score was 0.895 ± 0.81.
The entry for RICVRCPSYYTMWLWCLRFL is “inactive”.
RIFMWAYLAYCDNISEVRRR showed an amyloid nucleation score of -0.554 ± 1.
RILFWSYA gave an amyloid nucleation score of -0.407 ± 0.48.
The figure for RIMTPWIGRGRRAHIFLHLW is 1.06 ± 0.29; for RINKGISGRGSD it is 0.582 ± 0.57.
The figure for RINMPTYLLNWFSCHNYRFS is 3.98 ± 0.093; for RIQSSFFHCC it is 7.825 ± 0.036; for RIRASKPVFKAFLTPGSYLF it is -1.87 ± 1.
Take RIRHCGQFYSMHGKRRIATH: the amyloid nucleation score turned out to be 1.17 ± 0.34.
On to RISRFMPCSRS, for which the amyloid nucleation score was 1.11 ± 0.52.
The value for RIVRQSVYQELFYFGQRGSL was 4.19 ± 0.072; that for RKFFSIVRFCA was “inactive”.
Turning to RKGSTGRDISSNSYIVY, the amyloid nucleation score entry is “inactive”.
The value for RKILVKMNYFMRHLMNCVTE was “inactive”.
The value for RKIMNGKV was -0.414 ± 0.64; that for RKLGYFLRLRKKATHGRLLV was 5.5 ± 0.067.
Turning to RKLRVNWERCFHVSEAGLKV, the amyloid nucleation score is 0.057 ± 1.1.
On to RKNSLHTMWMGKMVCSCFKL, for which the amyloid nucleation score stood at 5.69 ± 0.063.
The figure for RKNSWDISHPAGTCNIRFIL is 0.339 ± 0.61; for RKWLISHPFLRRRGLSSLVF it is 0.99 ± 0.2; for RLCAWEVNPARSKAGAV it is 0.886 ± 0.57.
The figure for RLCGV is -1.17 ± 0.55; for RLCWLEGVIVYRIFGGKLGV it is -1.33 ± 0.44; for RLFLSSNST it is -1.49 ± 0.54.
The figure for RLFTRANCIHFRERKVRKIH is 0.078 ± 0.29.
In the case of RLGFISRSNLVANDVGKIFL, the amyloid nucleation score entry was “inactive”.
In turn, RLHRTILHVSRTGQFGAHQC yielded an amyloid nucleation score of 0.989 ± 0.35.
Substance RLKAPLPYDEIFQLFVIGEI gave an amyloid nucleation score of 0.698 ± 0.8.
With RLKELRQDIPVMPNRQL, the amyloid nucleation score is 1.51 ± 0.3.
RLLFSDCFLVFLPMGCFAFF gave an amyloid nucleation score of 3.69 ± 0.07.
As for RLLLCLRLSY, the amyloid nucleation score was found to be 2.7 ± 0.12.
In turn, RLLLLPTSLLYSKSWCYSLL registered an amyloid nucleation score of -0.622 ± 0.27.
The figure for RLLNTAVLVANESNQNARDR is -0.245 ± 0.29; for RLMVWSSL it is 1.87 ± 0.38.
Turning to RLRDRNDHVLRCSHYWIQDW, the amyloid nucleation score was 0.956 ± 0.57.
RLRSILLSWCCRFGGSQLRA gave an amyloid nucleation score of 0.581 ± 0.39.
With RLSAHPVAAVLWG, the amyloid nucleation score is 1.49 ± 0.36.
RLSENFLRWSDVTIQSRLFG had an amyloid nucleation score of 2.49 ± 0.15.
The value for RLSEVTKDYVGTCNLDRLS was -0.157 ± 0.29; that for RLSLQTVRLPLLYIWDEDSW was 3.43 ± 0.15.
RLSNELKRMVYSDQVQGYSR displayed an amyloid nucleation score of -0.357 ± 0.48.
The value for RLSPPRNWLVRRRRIFNGLL was -0.757 ± 0.76; that for RLTFSSIVTGGLQFKTLL was 2.75 ± 0.1.
Substance RLTPYTFTWSVFEMFNLRMP displayed an amyloid nucleation score of -1.09 ± 0.49.
Consider RLTYNKYLTWNCYVFLSHAL, for which the amyloid nucleation score is -0.464 ± 1.1.
In turn, RLVIGT returned an amyloid nucleation score of 2.41 ± 0.11.
The value for RLVYGLFAYKF was 5.29 ± 0.037; that for RLWNSGCLS was -0.916 ± 0.76.
In the case of RLWTCLEVLKFSGGLIASMY, the amyloid nucleation score is -1.05 ± 0.44.
RMCLSVVNWSSRSHRSFHQP displayed an amyloid nucleation score of 3.81 ± 0.051.
The value for RMGFWSLGSSSYNWYKTCVL was 0.043 ± 0.74.
The figure for RMPVLSCDCRFFYVLSRVNE is -0.566 ± 1; for RMSIICFALKYILYRWMFRL it is 0.988 ± 0.74.
The figure for RMSVRLKVVHLDAIIVLVLG is 0.877 ± 0.8; for RMWCLGLDPLYTENKGSSDA it is -0.427 ± 1.1.
Substance RMWCQVKS registered an amyloid nucleation score of -0.236 ± 0.53.
The figure for RMYLRSIVKSLMAWQRLGRI is -0.545 ± 0.55; for RNAQDKESKIGTVSDSNHWV it is 0.107 ± 0.36.
The value for RNGLILCLGEVVMSSMESVT was -0.646 ± 0.61; that for RNGVNRLELGFLIETLHNAC was 4.622 ± 0.038; that for RNLCGFGCVTFRSVLL was 0.279 ± 0.65.
The value for RNMVVGVGRRP was -0.15 ± 0.45; that for RNRSGVMW was 0.276 ± 1.
Substance RNSDGPLCSDGVVHFIRMLV came in with an amyloid nucleation score of 0.001 ± 0.65.
Regarding RNSPSRKNL, the amyloid nucleation score was -0.415 ± 0.36.
In turn, RNTNSANVKSCSMVRNRVWC registered an amyloid nucleation score of 0.604 ± 0.66.
The figure for RNYHIQYIAVRVLIPASA is 5 ± 0.068; for RNYRLRMDGDCGLFFCCGD it is 9.348 ± 0.051.
In turn, RNYVIFTSEAKVAADIPLYL yielded an amyloid nucleation score of 2.45 ± 0.21.
The value for RPDNSDV was -1.61 ± 0.54; that for RPFDHANRCRSAVYT was 1.63 ± 0.47; that for RPKYCQVVAGLVNYGVRLVV was -0.262 ± 0.49.
The value for RPMLVVSGGTSVLWDWAASD was 0.422 ± 0.64; that for RPMWLSGAEKKWLSCWCNCM was 6.013 ± 0.046.
For RPQKSSARRIVPFMMFWLGN, the amyloid nucleation score turned out to be 0.426 ± 0.36.
The figure for RPRAWI is 0.428 ± 0.44.
The entry for RPVDPWLCRKWLVV is “inactive”; for RPWHDLLNLHLYGRFMYTIG it is 0.415 ± 0.37.
The figure for RPWLNRAFDVISYYAIMACR is 0.091 ± 0.3; for RPWVHTGW it is 0.277 ± 0.57; for RQDPDSLTLHRLSSGGIR it is 0.366 ± 0.64.
In turn, RQFPGFSSYPTLEINFYICV displayed an amyloid nucleation score of 6.76 ± 0.069.
The value for RQGFSVSSNRLGVFQSQEPG was -1.05 ± 0.78; that for RRAILWPNGAN was 0.097 ± 0.37; that for RRFMYIFYLDYFFKPLLRLN was -0.369 ± 1.1.
The value for RRFPRHLASGRMPV was 1.41 ± 0.32; that for RRFTINFKDK was -1.2 ± 0.78; that for RRICTGFIRLVGYVYYAAHL was -0.29 ± 0.24.
The value for RRIIQCSDEFVLYQCNMLRC was 0.759 ± 0.41.
With RRISLLFTYYVRQSLSCLIV, the amyloid nucleation score came to 4.94 ± 0.086.
The figure for RRLFYRRRQHNILLAYWVWY is 0.524 ± 0.81.
With RRLSNRRWLIFCQWSFHYGV, the amyloid nucleation score turned out to be 0.242 ± 0.61.
The entry for RRQRWKRLTNF is “inactive”; for RRSSD it is 1.2 ± 0.3; for RRTICCCSIVCGRGNGSLDL it is 6.257 ± 0.056.
As for RRVMRLWMALPCNDMIGCIQ, the amyloid nucleation score is -0.476 ± 0.37.
As to RRVVWSWNCLLSDMPRSHVL, the amyloid nucleation score worked out at 1.51 ± 0.13.
For the substance RRVYCNIIVSGVCVSGE, the amyloid nucleation score stood at 1.42 ± 0.12.
Take RRWDHRIHGILSISDIIFLR: the amyloid nucleation score result was “inactive”.
The value for RRYYNAQHVVVYELEVESLS was 0.453 ± 0.66; that for RSCMASEYGT was -0.971 ± 0.64.
As to RSCSWLLIYRIVILVG, the amyloid nucleation score result is “inactive”.
The figure for RSDCCRDQYT is -0.311 ± 1.1.
In turn, RSDVTLDNIQMWA came in with an amyloid nucleation score of -1.38 ± 0.64.
For the substance RSFGYIMLWVMIFNRIKLIF, the amyloid nucleation score result was “inactive”.
The value for RSFHVEYILM was 3.23 ± 0.068.
The substance RSHGSQGMKSR came in with an amyloid nucleation score of 1.12 ± 0.34.
RSHLSTLEMSTSIGKGNPNY: the amyloid nucleation score is 0.685 ± 0.56.
RSIISFPLFLFSIQLIPPWA: the amyloid nucleation score was -0.792 ± 0.6.
RSLDEPSFFIPMPMYWVLGV: the amyloid nucleation score came to 0.271 ± 0.65.
Substance RSLDVLTTVVMRAFNPTRLR came in with an amyloid nucleation score of 0.953 ± 0.36.
The value for RSLVLYSGRKVLS was -0.516 ± 0.27.
The value for RSMFDWYKCILHDLISLQSR was 0.769 ± 0.47.

These data come from the supplement of paper PMC12042874.
